For 18 sequences, Kd and IC50 results are on record in the Immune Epitope Database (IEDB).

The target of one experiment is HLA-B*07:02. In words: IEDB peptide-MHC binding, purified MHC/competitive/radioactivity; filed as Kd, often an IC50 or EC50 that approximates it; ≥ and ≤ were set here for values at or beyond the usual limits of such assays.
The target in experiment [1] is HLA-B*35:01. The experiment is described as above.
A further experiment deals with HLA-B*51:01. The experiment is described as above.
The next experiment concerns the target HLA-B*53:01. The experiment is described as above.
The next experiment addresses HLA-B*54:01. Described as above.
The target of experiment [2] is HLA-A*03:01. Put plainly: IEDB peptide-MHC binding, purified MHC/competitive/fluorescence; filed as Kd, often an IC50 or EC50 that approximates it; ≥ and ≤ were set here for values at or beyond the usual limits of such assays.
A further experiment deals with HLA-B*15:17. Put plainly: IEDB peptide-MHC binding, purified MHC/direct/fluorescence; filed as Kd, often an IC50 or EC50 that approximates it; ≥ and ≤ were set here for values at or beyond the usual limits of such assays. To be noted: source organism: Francisella tularensis subsp. holarctica LVS.
Another experiment has as its target HLA-B*57:01. Described as above. To be noted: source organism: Francisella tularensis subsp. holarctica LVS.
Another experiment addresses HLA-B*58:01. Described as above. To be noted: source organism: Francisella tularensis subsp. holarctica LVS.
For experiment [3], the target named is HLA-B*35:01. In words: IEDB peptide-MHC binding, purified MHC/competitive/fluorescence; filed as Kd, often an IC50 or EC50 that approximates it; ≥ and ≤ were set here for values at or beyond the usual limits of such assays. To be noted: source organism: Francisella tularensis subsp. tularensis FSC198.
In a further experiment the target is HLA-A*01:01. Described as above.
In the next experiment the target is HLA-A*02:01. In words: IEDB peptide-MHC binding, purified MHC/competitive/fluorescence; ≥ and ≤ were set here for values at or beyond the usual limits of such assays.
For the next experiment, the target named is HLA-A*24:02. The experiment is described as above.
A further experiment has as its target HLA-B*15:01. The description is as above.
A further experiment deals with HLA-A*23:01. Put plainly: IEDB peptide-MHC binding, purified MHC/direct/fluorescence; filed as Kd, often an IC50 or EC50 that approximates it; ≥ and ≤ were set here for values at or beyond the usual limits of such assays.
Experiment [4] addresses HLA-A*03:01. In words: IEDB peptide-MHC binding, purified MHC/competitive/fluorescence; ≥ and ≤ were set here for values at or beyond the usual limits of such assays. The conditions noted are these: source organism: Vaccinia virus Copenhagen.
Another experiment concerns the target HLA-A*11:01. Put plainly: IEDB peptide-MHC binding, purified MHC/competitive/radioactivity; filed as Kd, often an IC50 or EC50 that approximates it; ≥ and ≤ were set here for values at or beyond the usual limits of such assays. The conditions noted are these: source organism: Vaccinia virus WR.
Another experiment addresses HLA-A*31:01. Described as above. To be noted: source organism: Vaccinia virus WR.
The target in the next experiment is HLA-A*33:01. Described as above. To be noted: source organism: Vaccinia virus WR.
The next experiment concerns the target HLA-A*68:01. The experiment is described as above. The conditions noted are these: source organism: Vaccinia virus WR.
In another experiment the target is HLA-C*05:01. In words: IEDB peptide-MHC binding, purified MHC/direct/fluorescence; filed as Kd, often an IC50 or EC50 that approximates it; ≥ and ≤ were set here for values at or beyond the usual limits of such assays. To be noted: source organism: Campylobacter upsaliensis RM3195.
Another experiment concerns the target HLA-B*15:42. Put plainly: IEDB peptide-MHC binding, purified MHC/competitive/fluorescence; filed as Kd, often an IC50 or EC50 that approximates it; ≥ and ≤ were set here for values at or beyond the usual limits of such assays. The conditions noted are these: source organism: Vibrio cholerae RC385.
A further experiment has as its target HLA-B*45:06. The description is as above. To be noted: source organism: Vibrio cholerae RC385.
The target in another experiment is HLA-B*83:01. The description is as above. The conditions noted are these: source organism: Vibrio cholerae RC385.
The mark [5] stands for this setting: source organism: SARS coronavirus Tor2.
Where [6] appears, read: source organism: Zaire ebolavirus.
The mark [7] stands for this setting: source organism: Vaccinia virus Copenhagen.
The mark [8] stands for this setting: source organism: Triticum aestivum.
[9] abbreviates: source organism: Sudan ebolavirus.
Setting [10] is: source organism: Vaccinia virus WR.

What is called Kd is a measure of binding affinity in units of concentration. For LPFHRWHTMV, the Kd with HLA-B*07:02 (setting [5]) is 462 nM; in the experiment with HLA-B*35:01 [1] (setting [5]), 7.51 µM; with HLA-B*51:01 (setting [5]), 1150 nM; in the experiment with HLA-B*53:01 (setting [5]), 18.7 µM; in the experiment with HLA-B*54:01 (setting [5]), 28.4 nM.

In the experiment with HLA-A*03:01 [2] (source organism: Brucella abortus 2308), KVHAVLTEH registered a Kd of 94.4 nM.

In the experiment with HLA-A*03:01 [2] (source organism: Rickettsia felis URRWXCal2), LIAATAITH yielded a Kd of 266 nM.

In the case of VPMEKLKAL, the Kd in the experiment with HLA-B*07:02 (setting [5]) was 13.5 nM; with HLA-B*35:01 [1] (setting [5]), 6.61 µM; with HLA-B*51:01 (setting [5]) it was 2180 nM; with HLA-B*53:01 (setting [5]), no less than 39.4 µM; with HLA-B*54:01 (setting [5]) it was 11700 nM.

With YGIAAHWSY, the dissociation constant Kd with HLA-B*15:17 was 3.2 nM; with HLA-B*57:01, 258 nM; with HLA-B*58:01, 47.5 nM; with HLA-B*35:01 [3], no more than 0.1 nM.

The sequence TSADQQSLY gave a Kd with HLA-A*01:01 (source organism: Influenza A virus (A/swine/Quebec/1192/1986(H1))) of 21 nM.

What is called IC50 is the midpoint of a concentration-inhibition curve. As to TIAGVAGLI, the results for the IC50 in the experiment with HLA-A*02:01 (setting [6]), with HLA-A*24:02 (setting [6]) and in the experiment with HLA-B*15:01 (setting [6]) were 6.06 µM, 2.56 µM and no less than 165 µM, respectively.

Regarding GFLNEDHWF, the Kd with HLA-A*23:01 (source organism: dengue virus type 2) is 24.5 nM.

As to ALKKLIIDR, the IC50 was no less than 166 µM with HLA-A*02:01 (setting [7]), no less than 83.2 µM with HLA-A*03:01 [4] and no less than 3610 µM with HLA-A*24:02 (setting [7]). Moreover, the Kd was no less than 56.4 µM with HLA-A*11:01, 6.01 nM with HLA-A*31:01, 1890 nM with HLA-A*33:01 and 6.04 µM in the experiment with HLA-A*68:01.

KSDDVEGRF: the Kd in the experiment with HLA-C*05:01 was no more than 1 nM.

In the experiment with HLA-A*23:01 (source organism: Vibrio vulnificus CMCP6), HWLKVWFEW returned a Kd of 121 nM.

In the case of ITHPKYRKH, the Kd in the experiment with HLA-A*03:01 [2] (source organism: Vibrio vulnificus YJ016) was no less than 20000 nM.

For IMLEGETKL, the IC50 with HLA-A*24:02 (setting [7]) stood at 47.2 µM; in the experiment with HLA-B*15:01 (setting [7]), 42.5 µM.

TTITGDSAY returned a dissociation constant Kd with HLA-A*01:01 (source organism: Salmonella enterica subsp. enterica serovar Typhi) of 4000 nM.

On to MMYTVSLGK, for which the Kd in the experiment with HLA-A*03:01 [2] (source organism: Vibrio cholerae RC385) is 2.3 nM; with HLA-B*15:42, no less than 5 µM; with HLA-B*45:06, no less than 5 µM; in the experiment with HLA-B*83:01, no less than 5 µM.

Regarding QPYPQSQPQY, the Kd with HLA-B*07:02 (setting [8]) was no less than 69600 nM; in the experiment with HLA-B*35:01 [1] (setting [8]) it was 0.323 µM; in the experiment with HLA-B*51:01 (setting [8]), no less than 69600 nM; with HLA-B*53:01 (setting [8]), no less than 21.2 µM; with HLA-B*54:01 (setting [8]) it was no less than 69900 nM.

As to QLRGEELSF, the IC50 is no less than 87 µM with HLA-A*02:01 (setting [9]) and 16.8 µM with HLA-B*15:01 (setting [9]).

With RPKILSMINY, the Kd with HLA-B*07:02 (setting [10]) turned out to be 3170 nM; in the experiment with HLA-B*35:01 [1] (setting [10]), 5.74 µM; with HLA-B*51:01 (setting [10]), 8900 nM; in the experiment with HLA-B*53:01 (setting [10]), 1.12 µM; with HLA-B*54:01 (setting [10]), 2920 nM.
